# According to patent publication US20240239863A1, “GIP RECEPTOR AGONIST AND USE THEREOF” (HANGZHOU ZHONGMEIHUADONG PHARMACEUTICAL CO., LTD., priority 2022, published 2024):
# Non-standard residues stand in square brackets, D forms with d. No end group written: not given here. Aib = CC(C)(N)C(=O)O
# T1: human GIP receptor (glucose-dependent insulinotropic peptide receptor, GIPR) (human, UniProt P48546 22-466)
# T1 sequence (looked up): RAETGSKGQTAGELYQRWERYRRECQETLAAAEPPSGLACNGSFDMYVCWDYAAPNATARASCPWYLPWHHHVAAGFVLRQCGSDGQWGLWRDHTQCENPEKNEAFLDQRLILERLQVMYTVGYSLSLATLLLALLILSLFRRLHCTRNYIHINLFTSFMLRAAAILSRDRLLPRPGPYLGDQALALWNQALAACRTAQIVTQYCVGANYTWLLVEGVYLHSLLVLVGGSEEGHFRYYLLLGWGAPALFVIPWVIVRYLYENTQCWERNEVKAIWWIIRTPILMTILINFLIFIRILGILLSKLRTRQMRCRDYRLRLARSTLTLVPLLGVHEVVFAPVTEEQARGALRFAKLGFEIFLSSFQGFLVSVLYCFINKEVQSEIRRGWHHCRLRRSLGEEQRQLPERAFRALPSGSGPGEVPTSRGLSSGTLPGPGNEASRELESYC
# Target: T1, human GIP receptor (glucose-dependent …)
# Experiment: cell-based or functional assay
row,Binder,"EC50(pM), cell agonistic activity (cAMP, HTRF) [pM]"
1,"Y[Aib]EGTFISDYSIALDRLHQQDFVKWLLAQRG (also: long-acting conjugating component, site and structure not given here) [Peptide 17 (long-acting conjugate of GIP analog, Seq ID. 17)]",25.7
2,"Y[Aib]EGTFISDYSIALDK(18‑(((23R)-23-carboxyl-2,11,20-trioxo-10,19-diaza-4,7,13,16-tetraoxatricosyl-23-yl)amino)‑18‑oxooctadecanoic acid acetyl)IHQEDFVNWLLAQRG",7.24
3,"Y[Aib]EGTFISDYSIALDRLHQQDFVNWLLAQKG (also: long-acting conjugating component, site and structure not given here) [Peptide 18 (long-acting conjugate of GIP analog, Seq ID. 18)]",21.1
4,"Y[Aib]EGTFISDYSIALDRIHQQDFVNWLLAQK(18‑(((23R)-23-carboxyl-2,11,20-trioxo-10,19-diaza-4,7,13,16-tetraoxatricosyl-23-yl)amino)‑18‑oxooctadecanoic acid acetyl)G",3.5
5,"Y[Aib]EGTFISDYSIALDK(18‑(((23R)-23-carboxyl-2,11,20-trioxo-10,19-diaza-4,7,13,16-tetraoxatricosyl-23-yl)amino)‑18‑oxooctadecanoic acid acetyl)LHQEDFVNWLLAQRG",6.82
6,"Y[Aib]EGTFISDYSIALDRIHQEDFVNWLLAQKG (also: long-acting conjugating component, site and structure not given here) [Peptide 12 (long-acting conjugate of GIP analog, Seq ID. 12)]",5.14
7,"Y[Aib]EGTFISDYSIALDK(18‑(((23R)-23-carboxyl-2,11,20-trioxo-10,19-diaza-4,7,13,16-tetraoxatricosyl-23-yl)amino)‑18‑oxooctadecanoic acid acetyl)IHQQDFVNWLLAQRG",6.66
8,"Y[Aib]EGTFISDYSIALDRIHQQDFVKWLLAQRG (also: long-acting conjugating component, site and structure not given here) [Peptide 13 (long-acting conjugate of GIP analog, Seq ID. 13)]",5.61
9,"Y[Aib]EGTFISDYSIALDK(18‑(((23R)-23-carboxyl-2,11,20-trioxo-10,19-diaza-4,7,13,16-tetraoxatricosyl-23-yl)amino)‑18‑oxooctadecanoic acid acetyl)LHQQDFVNWLLAQRG",4.26
10,"Y[Aib]EGTFISDYSIALDRLHQEDFVKWLLAQRG (also: long-acting conjugating component, site and structure not given here) [Peptide 15 (long-acting conjugate of GIP analog, Seq ID. 15)]",9.14
11,"Y[Aib]EGTFISDYSIALDRLHQEDFVNWLLAQKG (also: long-acting conjugating component, site and structure not given here) [Peptide 16 (long-acting conjugate of GIP analog, Seq ID. 16)]",3.77
12,"Y[Aib]EGTFISDYSIALDRIHQEDFVKWLLAQRG (also: long-acting conjugating component, site and structure not given here) [Peptide 11 (long-acting conjugate of GIP analog, Seq ID. 11)]",3.5

# Target: human GLP-1 receptor (human, UniProt P43220 24-463)
# Experiment: cell-based or functional assay
row,Binder,"EC50(pM), cell agonistic activity [pM]"
1,"Y[Aib]EGTFISDYSIALDRLHQQDFVKWLLAQRG (also: long-acting conjugating component, site and structure not given here) [Peptide 17 (long-acting conjugate of GIP analog, Seq ID. 17)]",> 100
2,"Y[Aib]EGTFISDYSIALDK(18‑(((23R)-23-carboxyl-2,11,20-trioxo-10,19-diaza-4,7,13,16-tetraoxatricosyl-23-yl)amino)‑18‑oxooctadecanoic acid acetyl)IHQEDFVNWLLAQRG",> 100
3,"Y[Aib]EGTFISDYSIALDRLHQQDFVNWLLAQKG (also: long-acting conjugating component, site and structure not given here) [Peptide 18 (long-acting conjugate of GIP analog, Seq ID. 18)]",> 100
4,"Y[Aib]EGTFISDYSIALDRIHQQDFVNWLLAQK(18‑(((23R)-23-carboxyl-2,11,20-trioxo-10,19-diaza-4,7,13,16-tetraoxatricosyl-23-yl)amino)‑18‑oxooctadecanoic acid acetyl)G",> 100
5,"Y[Aib]EGTFISDYSIALDK(18‑(((23R)-23-carboxyl-2,11,20-trioxo-10,19-diaza-4,7,13,16-tetraoxatricosyl-23-yl)amino)‑18‑oxooctadecanoic acid acetyl)LHQEDFVNWLLAQRG",> 100
6,"Y[Aib]EGTFISDYSIALDRIHQEDFVNWLLAQKG (also: long-acting conjugating component, site and structure not given here) [Peptide 12 (long-acting conjugate of GIP analog, Seq ID. 12)]",> 100
7,"Y[Aib]EGTFISDYSIALDK(18‑(((23R)-23-carboxyl-2,11,20-trioxo-10,19-diaza-4,7,13,16-tetraoxatricosyl-23-yl)amino)‑18‑oxooctadecanoic acid acetyl)IHQQDFVNWLLAQRG",> 100
8,"Y[Aib]EGTFISDYSIALDRIHQQDFVKWLLAQRG (also: long-acting conjugating component, site and structure not given here) [Peptide 13 (long-acting conjugate of GIP analog, Seq ID. 13)]",> 100
9,"Y[Aib]EGTFISDYSIALDK(18‑(((23R)-23-carboxyl-2,11,20-trioxo-10,19-diaza-4,7,13,16-tetraoxatricosyl-23-yl)amino)‑18‑oxooctadecanoic acid acetyl)LHQQDFVNWLLAQRG",> 100
10,"Y[Aib]EGTFISDYSIALDRLHQEDFVKWLLAQRG (also: long-acting conjugating component, site and structure not given here) [Peptide 15 (long-acting conjugate of GIP analog, Seq ID. 15)]",> 100
11,"Y[Aib]EGTFISDYSIALDRLHQEDFVNWLLAQKG (also: long-acting conjugating component, site and structure not given here) [Peptide 16 (long-acting conjugate of GIP analog, Seq ID. 16)]",> 100
12,"Y[Aib]EGTFISDYSIALDRIHQEDFVKWLLAQRG (also: long-acting conjugating component, site and structure not given here) [Peptide 11 (long-acting conjugate of GIP analog, Seq ID. 11)]",> 100
